Reference: PMC11974935 (bioRxiv, 2025)

Molecular target: the molecule itself
Assay: mass photometry

B1: full-length, wild-type Cdc13 (natural protein, S. cerevisiae, UniProt P32797 1-924, looked up)
chain: MDTLEEPECPPHKNRIFVSSSKDFEGYPSKAIVPVQFVALLTSIHLTETKCLLGFSNFERRGDQSQEDQYLIKLKFKDRGSERLARITISLLCQYFDIELPDLDSDSGASPTVILRDIHLERLCFSSCKALYVSKHGNYTLFLEDIKPLDLVSVISTISTKSTNSSKHSSSELISECDLNNSLVDIFNNLIEMNRDEKNRFKFVKLIHYDIELKKFVQDQQKVLSQKSKAAAINPFFVPNRLGIPYIESQNEFNSQLMTLNVDEPTTDISNMGEEMHDSADPIEDSDSSTTSSTGKYFSSKSYIQSQTPERKTSVPNNWHDDDSGSKRKRKLSFHSPNASSIRKAISYEQLSLASVGSVERLEGKIVGMNPPQFASINEFKYCTLKLYFTQLLPNVPDKVLVPGVNCIEIVIPTRERICELFGVLNCQSDKISDILLLEKPDRISVEVERILWDNDKTASPGMAVWSLKNISTDTQAQAQVQVPAQSSASIDPSRTRMSKMARKDPTIEFCQLGLDTFETKYITMFGMLVSCSFDKPAFISFVFSDFTKNDIVQNYLYDRYLIDYENKLELNEGFKAIMYKNQFETFDSKLRKIFNNGLRDLQNGRDENLSQYGIVCKMNIKVKMYNGKLNAIVRECEPVPHSQISSIASPSQCEHLRLFYQRAFKRIGESAISRYFEEYRRFFPIHRNGSHLAKLRFDEVKHEPKKSPTTPALAEHIPDLNADVSSFDVKFTDISSLLDSSARLPRPQQTHKSNTLYSCEGRIIAIEYHASDLCFHITNELPLLQTRGLAPERVLQLHIITSKNFAYFFNRSSAYLQRQPLEEKYTQLAQFLGHSFKFNITSSLTLFPDTTVALQIWCPIECTFRELQQQLAHPKVAAAPDSGSLDCAINATVNPLRLLAAQNGVTVKKEEDNDDDAGAVPTS
stoichiometry N: 2
